Patent US12241094B2, “Phenazine degrading agents and related compositions, methods and systems for interfering with viability of bacteria” (priority 2016, dated 2025)
Entries after “also recorded” stand apart in the source; their conditions may differ.

Tests used:
[1] = tested on: P. aeruginosa PA14 biofilms; assay: Biofilm formation, surface coverage (chambered coverglass, DAPI); assay type: cell-based; details: for biofilm surface coverage: 5 hours
Description: Biofilm experiments. For all experiments involving inactivated PodA, either the E154A mutant or PodA30-162 that was subjected to a 1 hour treatment at 98° C. was used. To test the ability of PodA30-162 to degrade PYO in the presence of DNA, genomic DNA (gDNA) from P. aeruginosa PA14 was used in modified versions of previously described assays (59). For experiments using DNA pellets, 0.5 mg of gDNA was pelleted in the presence of 300 mM sodium acetate, pH 5.2 and 70% ethanol. Pellets were washed with 70% ethanol and dried. 200 μL of 800 μM PYO was added to the gDNA pellet without mixing and left to sit at room temperature for 6 hours to allow for diffusion of PYO into the gDNA pellet. The pellet was washed once with 70% EtOH, and submerged in a solution containing 10 mM Tris, pH 7.0 and 40% isopropanol. The pellet remained blue, consistent with an association of PYO with DNA. PodA30-162 was added to the isopropanol solution to a final concentration of 2 μg mL^−1 and left to sit for 3 hours to allow for the reaction to proceed. Tubes were imaged before and after PodA30-162 treatment. For experiments using solubilized gDNA, a 400 μg mL^−1 solution of gDNA was mixed with PYO and allowed to equilibrate for 6 hours. The PYO gDNA mixture was amended with 1 μg mL^−1 PodA30-162 and loss of PYO was monitored on a BioTek Synergy 4 microplate reader (BioTek) plate reader at 690 nm. Standards were included to quantify PYO loss over time. To assess biofilm formation in the presence of PodA30-162, biofilms were grown in Nunc Lab-Tek chambered coverglass slides (8-well, 0.8 cm^2 area, supplier #155411) using a modified protocol (22). PA14 was inoculated into succinate minimal medium and grown overnight to stationary phase. Cells were resuspended in fresh medium and diluted to a starting OD500 of 0.5 in succinate minimal medium. PodA30-162 (2 μg mL^−1, final concentration) or DNase (20 μg mL^−1) (22) was added and 250 μL was added to each well of the 8-well chambered coverglass. Cultures were grown for 5 hours at 37° C. and 100 rpm (Innova 44 shaking incubator, New Brunswick) in a humidified chamber. After incubation, liquid was removed from each well by drawing with a pipet tip placed in the corner of each well and chambers were washed twice with 400 μL of biofilm wash (Tris buffer, pH 7.6 and 100 mM NaCl) to remove planktonic and loosely bound cells. Attached biomass was stained by adding 450 μL biofilm wash containing 10 μg mL^−1 DAPI (4′,6-diamidino-2-phenylindole) (Santa Cruz Biotechnology). Surface associated biomass was imaged on a Leica TCS SPE confocal microscope with a ACS APO 40×/1.15 oil immersion objective. A 405 nm solid-state laser was used for excitation, and data was collected from 420-500 nm. […]

[2] = tested on: P. aeruginosa biofilm; assay: Microcolony number and size in 5 hour biofilms on succinate minimal medium; assay type: cell-based; details: 100 μM 1-OHPHZ or 0.5 μg mL-1 PodA
From the text: FIGS. 24A-C show charts and images illustrating results of exemplary experiments showing that PodA and 1-OH-PHZ inhibit the early stages of P. aeruginosa biofilm formation on succinate minimal medium. […] Numbers are averages and SD from 8 biological replicates.

[3] = Storage stability of purified PodA30-162; assay type: physicochemical; details: 20 mM Tris, pH7.6, 4° C.; as long as tested
Description: Protein extraction and purification. Frozen cell pellets were thawed at room temperature and suspended in 25 mL wash buffer (200 mM KCl, 20 mM imidazole, Tris, pH 7.6). Cell suspensions were homogenized in an Emulsiflex device (Avestin). Cell debris was removed by centrifugation (Avanti J-25 centrifuge, J-series JA-25.50 rotor, Beckman-Coulter) at 50,000×g and supernatant was applied to a nickel GE Healthcare HisTrap HP 5 mL nickel column on a GE Healthcare ÄKTAxpress FPLC. All protein purification steps were carried out at room temperature. The column with bound protein was washed with wash buffer until the UV (280 nm) trace stabilized below 20 mAU. Proteins were eluted across a gradient of 20-500 mM imidazole applied over 10 column volumes. PYO demethylase activity generally eluted around 300 mM imidazole. Eluted protein was concentrated to ˜3 mL (Amicon Ultra-15 centrifugal filters, Ultracel 3K MWCO) and treated overnight with 1% wt/wt TEV protease (35) while dialyzing (Spectra/Por Biotech Dialysis membrane, MWCO: 3.5-5 kD) into buffer containing 200 mM KCl and 20 mM Tris, pH7.6 at 4 C. […] Protein quantification was carried out by Bradford assay (36) (Quick Start 1× Bradford Dye Reagent, Bio-Rad) using pre-diluted Bovine Serum Albumin standards (Thermo Scientific) to establish a standard curve. […]

B1: PodA30-162: truncated pyocyanin demethylase encoded by MFORT_14352 of Mycobacterium fortuitum lacking N-terminal helix, SEQ ID NO: 2 (protein, listed as Mycobacterium fortuitum)
chain: MDGRGGRSTTEPVTMTLDVKNDQVAKHDFGKPGMDVGDMDIFSDILSVDGKQVGYDGGACFFTNVTPDNPMTYCELTIHLDAGEIFARSLTPHTLAPFTMAITGGTGEYANSKGELTVSGVATPDEKYELKLTKAENLYFQ
biofilm surface coverage ([1]; PodA30-162 2 μg mL^−1, DNase 20 μg mL^−1, vs. PodA-inactive): reduced; also recorded: lower | biofilm surface coverage ([1]; representative images, 82.7 percent in the absence of PodA30-162): 43.5% | phenazines in biofilm supernatants by HPLC ([1]; after 5 hours of growth): conversion of PYO to 1-OH-PHZ | microcolony diameter [2]: decreases | number of microcolonies formed ([2]; vs inactive E154A): decreases | time stable with no apparent loss of activity [3]: ≥ 4 months
